Measured values published in publication PMC5767869.

Assays:
[1] = biological target: α-RSV (clone B21M) human IgG1 F405L lacking hinge disulfides (C226S/C229S), half-Ab (human); test: hydrophobic interaction chromatography; products of cFAE analysed for the share of bsAb
[2] = biological target: α-RSV (clone B21M) human IgG1 F405L lacking hinge disulfides (C226S/C229S), half-Ab (human); test: FRET or BRET; Fab-arm exchange between donor (Alexa Fluor 488)- and acceptor (Alexa Fluor 594)-labelled IgG1C→S Abs, 200 nM each, PBS, 25 °C, no reductant; monoexponential exchange rate taken as the rate of dissociation of the full Ab (half-Ab dimer) into half-Abs
[3] = biological target: α-gp120 (clone b12) human IgG1 K409R lacking hinge disulfides (C226S/C229S), half-Ab (human); test: as above
[4] = biological target: Alexa Fluor 488-labelled F405L half-Fc (IdeS fragment of α-RSV F405L IgG1WT) (human); test: fluorescence correlation spectroscopy (FCS); constant 50 pM Alexa Fluor 488-labelled half-Fc, 1:3 or 1:4 dilutions of unlabelled half-Ab (IgG1C→S), equilibrated at room temperature overnight; diffusion times of all four half-Fc/half-Ab combinations globally fitted with one KD each for F405L homodimerisation, K409R homodimerisation and heterodimerisation
[5] = biological target: Alexa Fluor 488-labelled K409R half-Fc (IdeS fragment of α-gp120 K409R IgG1WT) (human); test: as above

α-RSV (clone B21M) human IgG1 F405L lacking hinge disulfides (C226S/C229S), half-Ab (human), sequence (heavy, as listed by the source, chain 1 of 2): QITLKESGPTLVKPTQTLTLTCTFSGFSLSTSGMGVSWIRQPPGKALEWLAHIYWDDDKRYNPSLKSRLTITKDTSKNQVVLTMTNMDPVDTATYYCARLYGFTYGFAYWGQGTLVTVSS
α-RSV (clone B21M) human IgG1 F405L lacking hinge disulfides (C226S/C229S), half-Ab (human), sequence (light, as listed by the source, chain 2 of 2): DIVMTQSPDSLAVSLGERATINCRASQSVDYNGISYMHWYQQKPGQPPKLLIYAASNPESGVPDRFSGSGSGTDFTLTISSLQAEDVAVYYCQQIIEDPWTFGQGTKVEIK

Substance: α-gp120 (clone b12) human IgG1 K409R lacking hinge disulfides (C226S/C229S), half-Ab (antibody)
- percent bsAb after cFAE [1]: > 90%
- koff [2]: 0.000198 s⁻¹
- koff [3]: 0.000673 s⁻¹
- Kd [4]: 0.0656 nM
- Kd [5]: 0.337 nM
